Experimental data reported in patent US20100322974A1, “Targeting the histone code as a bacterial strategy for selectively modulating gene expression” (priority 2005, published 2010).

What was measured:
[1] = test system: endogenous Erk; test: Erk phosphorylation in transfected HeLa cells stimulated by PMA; settings: transfected expression plasmid, PMA stimulation
[2] = test system: histone H3 phosphorylation at Ser 10; test: H3 pS10 signal in HeLa cells infected with the ospF strain after kinase inhibitor pretreatment; assay type: cell-based; settings: both inhibitors together, U0126 10 μM and SB203180 2.5 μM, 60 min pretreatment, 30 min infection
[3] = molecular target: OspF (Shigella flexneri, UniProt Q8VSP9, R19K/S66F)
[4] = test system: phospho Erk2-GST; test: In vitro phosphatase assay on phospho Erk2-GST (Western blot); settings: for dephosphorylation of phospho-Erk2 substrate: purified protein, Western blot with anti phospho-Erk
[5] = test system: p38 MAP kinases; test: p38 phosphorylation in transfected HeLa cells stimulated by TNF; assay type: cell-based; settings: transfected plasmid, TNF stimulation
Protocol: IF was performed with anti-OspF antibodies.

[6] = test system: 33P-labeled Erk2 (GST-Erk2 fusion protein phosphorylated in vitro by MEK1) [GST: P08515]
[7] = molecular target: T1, ^33P-labeled Erk2 (Homo sapiens, UniProt P28482); test: 33P-labeled Erk2 phosphatase assay, steady state kinetics; assay type: biochemical; settings: pH 8, 30° C., 100 nM phosphatase, 10 minutes, Michaelis-Menten fit; for Km: read-out: Km of Erk2 dephosphorylation
T1 construct: made in house
Excerpt: In vitro phosphatase assay.

[8] = test system: histone H3 phosphorylation at Ser 10; test: H3 pS10 induced by okadaic acid in HeLa cells overexpressing OspF (immunofluorescence); assay type: cell-based; settings: 200 nM okadaic acid 3 hours
Protocol: (A) HeLa cells were left untreated (ns) or infected with the WT or the ospF strain at the indicated time. Indirect immunofluorescence detection was performed with anti-phospho-histone H3 S10 polyclonal antibody. (B) HeLa cells were synchronized by a double thymidine block (2 mM thymidine) and left untreated (ns) or infected with the WT or the ospF strain at the indicated time. Immunoblots were probed with anti-H3 phospho S10 (H3 pS10), anti-H3 methyl K9-phospho S10 (H3 metK9-pS10), anti-H3 phospho S10 acetyl-K14 (H3 p-S10/Ac-K14), anti Histone H3 polyclonal anti-pp 38 and pErk antibodies. (C) HeLa cells were transfected with pRK5myc-OspF vector and treated with 200 nM okadaic acid for 3 hours. IF was performed with anti-myc (red) and anti-H3 methyl K9-pS10 (green) antibodies. […] (D) One micogram of calf-thymus histone (Sigma) was incubated with 300 ng of His-OspF or with 120 U of λ phosphatase for 2 hours at 30° C. Western blot was performed with an anti-metK9-pS10 antibody. (E) One micogram of peptide metK9-S10 was spotted onto a nitrocellulose membrane that was incubated with buffers, 5 μg/ml of OspF, or 2000 U/ml of lambda phosphatase for 2 hours at 30° C. Western blot was performed with an anti-metK9-pS10 antibody. (F) HeLa cells were pretreated for 60 min with either the MEK1 inhibitor U0126 (10 μM) or the p38 inhibitor SB203180 (2.5 μM) or both. […]

[9] = test system: IL-12; test: Cytokine production in infected lungs (murine pulmonary infection, ELISA); assay type: in vivo, mice; settings: lungs infected with M90T or ospF strain, 24 hours post-infection
Protocol: The cytokine/chemokine network induced upon infection with Shigella flexneri was analyzed by comparing the profiles obtained upon infection with the invasive strain carrying the virulence plasmid (INV+) and the non-invasive, plasmidless strain (INV−). The murine model of pulmonary infection was used since it was the only valid model to analyze the specific host immune response upon Shigella infection. Following infection with INV−, a Th1 type-network (IL-12, IL-18, CCL9, CCL10, CCL13, and CCL4) was induced. In contrast, a Th2/Tr1 profile (IL-10, CCL1, CCL24 and CCL2) was induced upon infection with INV+. The difference observed was not due to the bacterial dose used for the infection, but was dependent on the presence or absence of the virulence plasmid.
Some of these bacterial effectors are injected within the host cells by a type III secretion apparatus. Use of different bacterial mutants, has highlighted that the bacterial effectors involved in the immunomodulation were effectors secreted by the type III-secretion apparatus. Finally, OspF, a type III-secreted bacterial effector was responsible for the control of IL-12 production (FIG. 10).

[10] = molecular target: 33P-labeled Erk2 (GST-Erk2 fusion protein phosphorylated in vitro by MEK1) [GST: P08515]; remark: listed apart in the source
[11] = test system: NF-κB; test: TNF-α-induced NF-κB reporter construct in Caco 2 cells; assay type: cell-based, human; settings: overexpression in Caco 2 cells
Excerpt: In addition to the classical MAPK-dependent target genes, OspF also repressed expression of some NF-κB-dependent chemokine genes such as IL-8. The IL-8 promoter contains an NF-κB binding site essential for expression of this gene (Hoffmann et al., 2002). Therefore, the inventors looked whether OspF interferes with the NF-κB signaling pathway.

[12] = test system: phospho JNK1; test: In vitro phosphatase assay on purified phospho JNK1 Histidine; assay type: biochemical; settings: 50 nM substrate
[13] = test system: histone H3 purified from calf thymus; test: Direct dephosphorylation of histone H3 or H3 tail peptides in vitro; assay type: biochemical; settings: 2 hours 30° C., even at 100 fold increased enzyme concentration
[14] = test system: phospho p38-GST; test: In vitro phosphatase assay on purified phospho p38-GST; assay type: biochemical; settings: 50 nM substrate
[15] = test system: histone H3 K14 acetylation; test: Trichostatin-induced hyper acetylation on K14 in HeLa cells overexpressing OspF; assay type: cell-based
Excerpt: A plasmid encoding myc-labelled OspF was used to overexpress OspF in HeLa cells. […] Thus, variations of the levels of phosphoacetylated histone H3 are likely to reflect the sole capacity of OspF to reduce the level of phosphorylation at Ser10.

[16] = test system: IL-8 promoter; test: ChIP with anti-OspF antibody at the IL-8 promoter in transfected HeLa cells; assay type: cell-based
Protocol: (A) DNA isolated from sonicated cross-linked chromatin fragments used as inputs for Chlp assays run on a 2% agarose/TAE gel. (B) Cross-linked chromatin fragments were prepared from Caco 2 cells left untreated (ns) or infected with the WT or the ospF strains at the indicated time. For each time point, aliquots were immunoprecipitated with irrelevant IgG, anti-H3 methyl K9-pS10, or anti-p65 antibodies. Histograms show the results obtained by Real-Time PCR analysis using amplicon from the promoter region of IL-8. Data are expressed as relative enrichment as compared to the result obtained with the corresponding IgG that have been immunoprecipitated at the same time point. […] (C) The data are given as in figure (B) except that the aliquots were immunoprecipitated with irrelevant IgG or anti-RNAPII antibodies. […]
To address whether MAPK-induced H3pS10 in the vicinity of the IL-8 promoter, HeLa cells expressing the plasmids encoding WT ospF, or as control, a C-terminal deletion mutant of the last 30 amino acids ospF (1-221) unable to localize within the nucleus (FIG. 7G) were processed for chromatin immunoprecipitation (ChIP) assay using the anti-OspF antibody and the enrichment of OspF at the IL-8 promoter was analyzed by Real-Time quantitative PCR.
In unstimulated cells, no signal was detected at the IL-8 promoter (FIG. 7H). […]

T1 sequence (P28482 whole entry): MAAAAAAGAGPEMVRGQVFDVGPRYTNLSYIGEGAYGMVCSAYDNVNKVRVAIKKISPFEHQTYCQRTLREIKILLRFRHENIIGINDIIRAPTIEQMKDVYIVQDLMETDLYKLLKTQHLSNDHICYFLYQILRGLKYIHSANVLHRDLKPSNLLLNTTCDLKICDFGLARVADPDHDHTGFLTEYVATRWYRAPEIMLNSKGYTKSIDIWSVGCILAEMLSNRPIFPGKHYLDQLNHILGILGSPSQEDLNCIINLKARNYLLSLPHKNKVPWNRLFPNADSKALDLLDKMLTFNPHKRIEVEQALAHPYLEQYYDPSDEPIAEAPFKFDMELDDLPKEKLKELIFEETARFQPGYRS

C1805: OspF with Cys 180 mutated into Ser (printed C1805)
ability to dephosphorylate Erk / prevent Erk phosphorylation in HeLa cells [1]: None of the mutations

C[S+]([O-])c1ccc(-c2nc(-c3ccc(F)cc3)c(-c3ccncc3)[nH]2)cc1 (centres unmarked) [SB 203180]
H3 pS10 signal induced by the ospF strain [2]: fully inhibited

O=C(O)CN(CCN(CC(=O)O)CC(=O)O)CC(=O)O [EDTA]
OspF activity blocked by EDTA (metal dependence) [3]: not blocked

His to Leu mutation at position 172: OspF with His to Leu mutation at position 172
ability to dephosphorylate Erk / prevent Erk phosphorylation in HeLa cells [1]: retention of phosphatase activity

D219: OspF with aspartate D219 mutated into asparagine
dephosphorylation of phospho-Erk2 substrate [4]: did not impair phosphatase activity

myc-labelled OspF: myc labelled OspF expressed from plasmid pRK5myc-OspF
ability to dephosphorylate Erk / prevent Erk phosphorylation in HeLa cells [1]: prevented phosphorylation | prevention of p38 phosphorylation in HeLa cells [5]: prevented phosphorylation

N#CC(=C(/N)Sc1ccccc1N)/C(C#N)=C(\N)Sc1ccccc1N [U0126]
H3 pS10 signal induced by the ospF strain [2]: fully inhibited

B1: MKP1 (enzyme, UniProt P28562 1-367, looked up, species assumed)
Dual specificity protein phosphatase 1: MVMEVGTLDAGGLRALLGERAAQCLLLDCRSFFAFNAGHIAGSVNVRFSTIVRRRAKGAMGLEHIVPNAELRGRLLAGAYHAVVLLDERSAALDGAKRDGTLALAAGALCREARAAQVFFLKGGYEAFSASCPELCSKQSTPMGLSLPLSTSVPDSAESGCSSCSTPLYDQGGPVEILPFLYLGSAYHASRKDMLDALGITALINVSANCPNHFEGHYQYKSIPVEDNHKADISSWFNEAIDFIDSIKNAGGRVFVHCQAGISRSATICLAYLMRTNRVKLDEAFEFVKQRRSIISPNFSFMGQLLQFESQVLAPHCSAEAGSPAMAVLDRGTSTTTVFNFPVSIPVHSTNSALSYLQSPITTSPSC
Km (release of radioactive inorganic phosphate, Michaelis-Menten fit, 100 nM enzyme) [6]: 0.229 µM | Vmax (release of radioactive inorganic phosphate, Michaelis-Menten fit, 100 nM enzyme) [6]: 6.01 pM/s | dephosphorylation of 33P-labeled Erk2 (gel mobility in SDS-PAGE/autoradiography, phospho-Erk Western blot) [6]: Dephosphorylation of Erk2 by both enzymes was confirmed by the gel-mobility increase of the substrate | kcat (release of radioactive inorganic phosphate, Michaelis-Menten fit, 100 nM enzyme) [6]: 0.0006 s⁻¹ | Vmax of Erk2 dephosphorylation [7]: 6.01 pM/s | kcat of Erk2 dephosphorylation [7]: 0.0006 s⁻¹ | Km [7]: 0.229 µM

B2: OspF phosphatase (protein)
chain: MPIKKPCLKLNLDSLNVVKSEIPQMLSANERLKNNFNILYNQIRQYPAYYFKVASNVPTYSDICQFFSVMYQGFQIVNHSGDVFIHACRENPQSKGDFVGDKFHISIAREQVPLAFQILSGLLFSEDSPIDKWKITDMNRVSQQSRVGIGAQFTLYVKSDQECSQYSALLLHKIRQFIMCLESNLLRSKIAPGEYPASDVRPEDWKYVSYRNELRSDRDGSERQEQMLREEPFYRLMIE
induction of H3 pS10 by okadaic acid [8]: efficiently prevented | IL-12 production in vivo [9]: down regulated | Km (release of radioactive inorganic phosphate, Michaelis-Menten fit, pH 8, 30° C., 100 nM enzyme) [10]: 204 nM | Vmax (release of radioactive inorganic phosphate, Michaelis-Menten fit, pH 8, 30° C., 100 nM enzyme) [10]: 9.89 pM s^-1 | kcat (release of radioactive inorganic phosphate, Michaelis-Menten fit, pH 8, 30° C., 100 nM enzyme) [10]: 0.0001 s^-1 | TNF-α-induced activation of a NF-κB reporter construct [11]: did not impair | dephosphorylation of purified phospho JNK1 [12]: failed to dephosphorylate | direct dephosphorylation of histone H3 and metK9-pS10 / pS10 peptides [13]: did not directly dephosphorylate | dephosphorylation of purified phospho p38 [14]: directly dephosphorylated | dephosphorylation of pT183 and pY185 residues of Erk ([4]; 500 ng OspF, 50 ng phospho Erk2-GST, 1 hour 30° C.): dephosphorylated both Thr and Tyr residues | dephosphorylation of phospho-Erk2 substrate [4]: directly dephosphorylated | trichostatin-induced hyper acetylation on K14 [15]: did not impair | recruitment of OspF at the IL-8 promoter ([16]; TNF-α stimulation): transient recruitment | OspF at the IL-8 promoter ([16]; unstimulated cells): not detectable | Vmax of Erk2 dephosphorylation [7]: 9.89 pM/s | kcat of Erk2 dephosphorylation [7]: 0.0001 s⁻¹ | Km [7]: 0.204 µM
